Source: patent publication US20230242902A1, “A HIGHLY ERROR-PRONE […] R[…] FOR TARGETED CONTINUOUS EVOLUTION IN VIVO” (The Regents of the University of California, priority 2017, published 2023)
Substitutions are numbered along the chain they refer to. Numbers in names are those of the source.

B1: E298S: TP-DNAP1 variant (protein)
chain: MDYKDKALNDLRNVYADFDSLPLDFRQILIKDRATLLQKEDVEKKILERQEDAKKYAEYLKQSEIPERISLPNIKRHKGVSISFEETSEDMVLEPRPFIFDGLNIRCFRRETIFSLKNKILNMVKESSSFKNVSRQSVSFMYFKIFNKGKVIASTKSVNIYEDKIDERLEDLCNNFDDVLKKIIDVTYGYESLFVSETYSYVIFYAKSIYFPQPRCVNNWGNNIPNILTFDSFKLFTANKNNVSCIKQCSRFLWQKDFNTLEEMIEYKNGNICIVTPQLHINDVRDIKSFNDIRLYSSSPIKTFSVIDNTITYLFYFKEHLGVIFNITKSRHDRRVTKFSPLSKFSDVKNITVCFDIESYFDPEKESNQVNIPFICCASIIYNKVIGNIVDFEGRDCVAQMIEYVVDICGELNISSVELIAHNGGGYDFHYILSSMYNPAAIKNILIRNNSFISFNFAHDGVKFSVKDSYSFLLCSLANASKAFLNEETFKKTDFPHHDLKTADDLYKVYKEWSSVNTEINHVVEKEKLLITSEHIVNFTKNDKSKTLIEWSKDYCRNDVLVLSKVWLEFKNAVEDIFNCELVDQTMTLAGLSYKLFQANMPFDVELRHPNKEDYFNMREALIGGRCISVNGIYKDVLCLDVKSLYPASMAFYDQPYGSFKRVSSRPKDELGIYYVRVTPNRNNKSNFFPIRSHNKITYNNFEESTYIAWYTNVDIDIGLSEGHNIEYIPFDSYGNIGYSWSKKGKIFEKYIKDVLYKLKIKYEKQNNKVKRNVIKIIMNSLWGKFAQKWVNFEYFIKSEDDIDFESEEAYKIWDTDFMLIKKIKESTYSSKPIQNGVFTLSWARYHMKSIWDAGAKEGAECIYSDTDSIFVHKEHFKKNAKFMLNGLKVPIIGSEVGQLELECEFDKLLCAGKKQYMGFYTYFQDGKPCIKEKKRFKGIPSNYIIPELYAHLLSGADKEAKIQFLKFRREWGSVKGYIENKTVKAT
B2: E298Y: TP-DNAP1 variant (protein)
chain: B1 chain with S298Y
B3: E298V: TP-DNAP1 variant (protein)
chain: B1 chain with S298V
B4: I301A: TP-DNAP1 variant (protein)
chain: B1 chain with S298E, I301A
B5: I301C: TP-DNAP1 variant (protein)
chain: B1 chain with S298E, I301C
B6: I301E: TP-DNAP1 variant (protein)
chain: B1 chain with S298E, I301E
B7: I301L: TP-DNAP1 variant (protein)
chain: B1 chain with S298E, I301L
B8: I301K: TP-DNAP1 variant (protein)
chain: B1 chain with S298E, I301K
B9: I301M: TP-DNAP1 variant (protein)
chain: B1 chain with S298E, I301M
B10: I301S: TP-DNAP1 variant (protein)
chain: B1 chain with S298E, I301S
B11: I301Y: TP-DNAP1 variant (protein)
chain: B1 chain with S298E, I301Y
B12: I301V: TP-DNAP1 variant (protein)
chain: B1 chain with S298E, I301V
B13: K302A: TP-DNAP1 variant (protein)
chain: B1 chain with S298E, K302A
B14: T303H: TP-DNAP1 variant (protein, listed as Kluyveromyces lactis)
chain: B1 chain with S298E, T303H
B15: T303L: TP-DNAP1 variant (protein)
chain: B1 chain with S298E, T303L
B16: T303M: TP-DNAP1 variant (protein)
chain: B1 chain with S298E, T303M
B17: T303W: TP-DNAP1 variant (protein)
chain: B1 chain with S298E, T303W
B18: F304A: TP-DNAP1 variant (protein)
chain: B1 chain with S298E, F304A
B19: F304R: TP-DNAP1 variant (protein)
chain: B1 chain with S298E, F304R
B20: F304Y: TP-DNAP1 variant (protein)
chain: B1 chain with S298E, F304Y
B21: S305N: TP-DNAP1 variant (protein)
chain: B1 chain with S298E, S305N
B22: S305G: TP-DNAP1 variant (protein)
chain: B1 chain with S298E, S305G
B23: I307L: TP-DNAP1 variant (protein)
chain: B1 chain with S298E, I307L
B24: D308Q: TP-DNAP1 variant (protein)
chain: B1 chain with S298E, D308Q
B25: N309C: TP-DNAP1 variant (protein)
chain: B1 chain with S298E, N309C
B26: N309K, I311G: TP-DNAP1 variant (protein)
chain: B1 chain with S298E, N309K, I311G
B27: T310N: TP-DNAP1 variant (protein)
chain: B1 chain with S298E, T310N
B28: T310D: TP-DNAP1 variant (protein)
chain: B1 chain with S298E, T310D
B29: T310E: TP-DNAP1 variant (protein)
chain: B1 chain with S298E, T310E
B30: T310H: TP-DNAP1 variant (protein)
chain: B1 chain with S298E, T310H
B31: T310F: TP-DNAP1 variant (protein)
chain: B1 chain with S298E, T310F
B32: T310W: TP-DNAP1 variant (protein)
chain: B1 chain with S298E, T310W
B33: I311A: TP-DNAP1 variant (protein)
chain: B1 chain with S298E, I311A
B34: I311N: TP-DNAP1 variant (protein)
chain: B1 chain with S298E, I311N
B35: I311D: TP-DNAP1 variant (protein)
chain: B1 chain with S298E, I311D
B36: I311G: TP-DNAP1 variant (protein)
chain: B1 chain with S298E, I311G
B37: I311M: TP-DNAP1 variant (protein)
chain: B1 chain with S298E, I311M
B38: T312E: TP-DNAP1 variant (protein)
chain: B1 chain with S298E, T312E
B39: T312Q: TP-DNAP1 variant (protein)
chain: B1 chain with S298E, T312Q

System: p1
Experiment: p1 copy number by p1-encoded mKate2 fluorescence
Assay type: cell-based, S. cerevisiae
Conditions: OR-Y24, measured in triplicate
Outline: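 Steps: transform TP-DNAP1 variant into OR-Y24; passage until w.t. p1 displaced; dilute 1:10,000 and grow to saturation in triplicate; measure p1-encoded mKate2 fluorescence; convert to copy number via linear qPCR-based calibration. Four high-copy variants were checked directly by qPCR.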

| Molecule | Mean fold-increase over w.t. (p1 copy number) [fold] |
| --- | --- |
| B1 | 2.43 |
| B2 | 2.17 |
| B3 | 2.64 |
| B4 | 2.41 |
| B5 | 2.46 |
| B6 | 2.57 |
| B7 | 2.94 |
| B8 | 2.71 |
| B9 | 2.76 |
| B10 | 2.29 |
| B11 | 3.28 |
| B12 | 2.53 |
| B13 | 1.88 |
| B14 | 2.3 |
| B15 | 2.41 |
| B16 | 2.5 |
| B17 | 2.96 |
| B18 | 2.14 |
| B19 | 3.49 |
| B20 | 2.41 |

| Molecule | Mean fold-increase over w.t. (p1 copy number) [fold] |
| --- | --- |
| B21 | 2.3 |
| B22 | 2.53 |
| B23 | 2.76 |
| B24 | 2.15 |
| B25 | 2.25 |
| B26 | 2.2 |
| B27 | 2.83 |
| B28 | 2.64 |
| B29 | 2.37 |
| B30 | 2.57 |
| B31 | 2.66 |
| B32 | 2.48 |
| B33 | 2.19 |
| B34 | 2.55 |
| B35 | 1.86 |
| B36 | 2.05 |
| B37 | 2.26 |
| B38 | 2.29 |
| B39 | 2.85 |
